Assay results from patent US20240124575A1 (SIMCERE ZAIMING PHARMACEUTICAL, published 2024).
Blank lines part the entries; values can stand above or below the binder they belong to.

Tests used:
[1] = biological target: T1, human CD33 on CHO-K1 cells (CHO-K1-human CD33) (human, UniProt P20138 18-364); assay: FACS, CHO-K1-human CD33 cells
T1 construct: whole, on cells; stably transfected CHO-K1 clones; also called CHO-K1-hCD33-B8; CHO-K1-human CD33 B8
Protocol: The desired cells were expanded to a logarithmic growth phase in a T-75 cell culture flask. For adherent cells CHO-K1, the culture medium was removed by pipetting, and the cells were washed twice with a PBS buffer, digested with trypsin, and washed twice with a PBS buffer again after the digestion was stopped. For suspension cells U937, the medium supernatant was discarded by direct centrifugation, and the cell pellet was washed twice with PBS, and then incubated with a buffer containing human Fc Block (purchased from BD, Cat. No. 564220) for 15 min. After the cells obtained in the last step were subjected to cell counting, the cell pellet was resuspended to 2×10⁶ cells/mL with a blocking solution [PBS+2% (w/w) BSA] and added to a 96-well FACS reaction plate at 50 μL/well. The VHH-Fc antibody (a sample to be tested) was added at 50 μL/well, and the plate was incubated on ice for 2 h. […] After the plate was centrifuged and washed 5 times with a PBS buffer, the results were assayed and analyzed by FACS (FACS Canto™, purchased from BD Biosciences), so as to obtain the mean fluorescence intensity (MFI) of cells. Then, analysis was performed by software (GraphPad Prism8), data were fitted, and EC50 values were calculated.

[2] = biological target: T2, human CD33-His (extracellular domain Asp 18-His 259) (human, UniProt P20138 18-259); assay: competitive ELISA vs coated S006-NB147-25 3ug/mL; soluble 25ug/ml
T2 construct: range 18-259; bought protein; also called hCD33-his; human CD33 protein; not shown: His tag
T2 sequence (P20138 18-259 limits assumed): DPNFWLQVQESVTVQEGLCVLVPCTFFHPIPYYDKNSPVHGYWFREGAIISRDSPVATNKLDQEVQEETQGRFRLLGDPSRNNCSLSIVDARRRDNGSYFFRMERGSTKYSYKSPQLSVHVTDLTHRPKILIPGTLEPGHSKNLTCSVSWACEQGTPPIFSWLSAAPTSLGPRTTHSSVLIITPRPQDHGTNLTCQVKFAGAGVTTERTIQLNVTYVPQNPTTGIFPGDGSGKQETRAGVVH

[3] = biological target: T2, human CD33-His (extracellular domain …); assay: competitive ELISA vs coated S006-NB146-181 3ug/mL; soluble 25ug/ml
monkey CD33-His protein = biological target: T3, monkey CD33-His protein (monkey); assay: ELISA on coated monkey CD33-his
T3 construct: also called monkey CD33 protein

human CD33-his protein [4] = biological target: T4, human CD33-his protein (human, UniProt P20138 18-259); assay: competition ELISA, coated human CD33-his, vs Biotin-C33B904 at EC80; antibody 7.81 nM
T4 construct: range 18-259; bought protein; also called hCD33-his; recombinant human CD33-his; not shown: His tag
T4 sequence (P20138 18-259 limits assumed): as above
Protocol: (§1) The plate was sealed with a plastic film and incubated at 4° C. overnight, washed twice with PBS the next day, and a blocking solution [PBS+2% (w/w) BSA] was added for blocking at room temperature for 2 h. The blocking solution was discarded, and VHH-Fc antibody or negative control antibody serially diluted from 100 nM was added at 50 μL/well. After incubation at 37° C. for 2 h, the plate was washed 3 times with PBS. A secondary antibody labeled with HRP (horseradish peroxidase) (purchased from Sigma, Cat. No. A0170) was added. After incubation for 1 h at 37° C., the plate was washed 5 times with PBS. A TMB substrate was added at 50 μL/well. After incubation at room temperature for 10 min, a stop solution (1.0 N HCl) was added at 50 μL/well. The OD450 nm values were read on an ELISA plate reader (Multimode Plate Reader, EnSight, purchased from Perkin Elmer). The assay results for the binding of the VHH-Fc to hCD33-his by ELISA are shown in FIGS. 7A and 7B and Tables 11 and 12. […] The IgG control was hIgG1, and the data in the table are OD450 nm values.
(§2) ELISA plates were coated with 2 μg/mL human CD33-his protein according to the method in Example 5.1; the Biotin-C331B904 antibody was subjected to a gradient dilution from 15 μg/mL, and EC80 values (0.18 μg/mL) were calculated. […] OD_{450 nm} values were read using an ELISA plate reader (Insight, purchased from PerkinElmer). […]

human CD33-his protein [5] = biological target: T4, human CD33-his protein; assay: competition ELISA, coated human CD33-his, vs Biotin-C33B904 at EC80; antibody 250.00 nM
Protocol: as §1, §2

human CD33-his protein [6] = biological target: T4, human CD33-his protein; assay: competition ELISA, coated human CD33-his, vs Biotin-C33B904 at EC80; antibody 500 nM
Protocol: ELISA plates were coated with 2 μg/mL human CD33-his protein according to the method in Example 5.1; the Biotin-C331B904 antibody was subjected to a gradient dilution from 15 μg/mL, and EC80 values (0.18 μg/mL) were calculated. ELISA plates were coated with 2 μg/mL human CD33-his protein; starting from 40 μg/mL, the VHH antibodies to be tested were diluted in a 1:2 dilution ratio to obtain seven concentrations and added to the ELISA plates, and then Biotin-C331904 antibodies with the EC80 concentrations were added for incubation for 2 h. The plates were washed 5 times with PBS and then […] (purchased from Sigma, Cat. No. S2438) were added for incubation for 1 h, and the plates were washed 5 times. A TMB substrate was added at 50 μL/well and incubated at room temperature for 10 min, then a stop solution (1.0 M HCl) was added at 50 μL/well. OD_{450 nm} values were read using an ELISA plate reader (Insight, purchased from PerkinElmer). Then, analysis was performed by software (GraphPad Prism8), and data were fitted for curve plotting. The results are shown in FIGS. 13A-13B and Tables 28 and 29.

T1 sequence (P20138 18-364): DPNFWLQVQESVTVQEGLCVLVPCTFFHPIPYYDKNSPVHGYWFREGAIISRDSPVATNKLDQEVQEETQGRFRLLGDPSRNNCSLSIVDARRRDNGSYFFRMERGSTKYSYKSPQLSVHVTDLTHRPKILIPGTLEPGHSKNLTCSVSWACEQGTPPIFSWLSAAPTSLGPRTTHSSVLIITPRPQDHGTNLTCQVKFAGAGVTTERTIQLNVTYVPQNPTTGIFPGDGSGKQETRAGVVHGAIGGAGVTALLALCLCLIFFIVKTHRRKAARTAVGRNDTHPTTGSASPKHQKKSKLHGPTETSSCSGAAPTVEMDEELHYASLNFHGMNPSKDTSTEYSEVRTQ

EC50 [1]: 4.53 nM
Max MFI [1]: 12400 MFI
inhibition rate [2]: 99%
inhibition rate [3]: 100%
EC50 (read off the curve) (monkey CD33-His protein): ~0.1 nM
B1: C33B904 hIgG1 (antibody, V domains shown)
VH: EVQLVESGGGLVQPGRSLRLSCAASGFTFDDYAMHWVRQAPGKGLEWVSGIGWSGGSIVYADSVKGRFTISRDNAKNSLYLQMNSLRAEDTALYYCAKDSPYGDFFDYWGQGTLVTVSS
VL: DIVMTQSPDSLAVSLGERATINCKSSQTVFYSSNNKNYLAWYQQKPGQPPKLLISWASTRKSGVPDRFSGSGSGTDFTLTVSSLQAEDVAVYYCQHYYSTPYTFGQGTKLEIKR
notes: intact human IgG1; variable regions from US20190382481A1; also called C33B3904; C331B904

OD450 (Biotin-C33B904 signal) (human CD33-his protein [4]): 1.72
OD450 (Biotin-C33B904 signal) (human CD33-his protein [5]): 0.1
OD450 (Biotin-C33B904 signal) (human CD33-his protein [6]): 0.08
B2: C33B904 (antibody, human IgG1, kappa, V domains shown)
VH: B1 VH
VL: B1 VL
notes: control antibody, intact human IgG1 form; variable regions from US20190382481A1; also called C33B904 hIgG1; C331B904
